Measured values as given in US10723806B2, “Method of introducing nucleic acid into plant cells” (RIKEN, priority 2012, dated 2020).
Ends that are not written are not given here.

Legend:
[1] = system: Nicotiana benthamiana leaf; test: In-vivo transfection of tobacco leaf with RLuc-encoding pDNA complex, Renilla luciferase assay; details: for RLuc expression (relative photometric unit/protein weight): peptide alone as carrier of pDNA, N/P ratio 0.5, 12 hours, benthamiana tobacco leaf; for transfection efficiency (RLuc assay) compared to complexes having other N/P ratios: N/P ratio 0.5, tobacco leaf; for incubation time showing the highest transfection efficiency: tobacco leaf, sampled 12 to 144 hours
Procedure: In-vivo transfection experiment using the tobacco leaf was performed to evaluate an ability of a carrier peptide-pDNA complex to deliver a gene into plant cells through a cell wall. Complexes of pDNA encoding RLuc and GFP serving as a reporter gene with R9-BP 100 and (KH)9-BP100 were directly allowed to permeate into Nicotiana benthamiana leaf. To determine the most efficient N/P ratio of a pDNA complex in the range of 0.1 to 20, a transfection efficiency is quantitatively characterized by use of RLuc assay.
A target plant was prepared as follows. Seeds of benthamiana tobacco were germinated in a pot containing a culture medium, which is a mixture of a soil (Pro-Mix) and vermiculite in a ratio of 2:1. The benthamiana tobacco plant was grown up to three weeks in a plant incubator (Biotron NK System) under constant light irradiation for 24 hours at a temperature of 29° C.
Leaves of benthamiana tobacco were sufficiently spread and directly impregnated with a solution (about 100 μL) of a complex comprising pDNA encoding green fluorescence protein (GFP) and Renilla luciferase (RLuc) by use of a syringe without a needle. The benthamiana tobacco plants thus treated were incubated in a plant incubator separately at a temperature of 29° C. and 21° C. under constant light irradiation for 16 hours per day until 6 days. To quantitatively evaluate RLuc gene expression, Renilla luciferase assay (Promega) was performed in accordance with the protocol provided by a manufacturer (n=4).
To be described in brief, sampling of the leaf impregnated was performed periodically in the range of 12 hours to 144 hours by cutting a square (1 cm^2) around an impregnated section. The samples each were lysed by use of Renilla Luciferase Assay Lysis Buffer (Promega). The lysate was briefly centrifuged and the supernatant was mixed with Renilla Luciferase Assay Substrate and Renilla Luciferase Assay Buffer (Promega). Gene expression was evaluated by a multi-mode microplate reader (Spectra MAX M3, Molecular Devices Corporation) based on the intensity (relative photometric unit) of photoluminescence. The amount of protein in the supernatant was determined by BCA protein assay (Pierce Biotechnology) to obtain a relative photometric unit/protein weight (RLU/mg). A transformant with RLuc gene-encoding pDNA via Agrobacterium (Agrobacterium) was used as a positive control in the experiment.
The statistical difference in transfection efficiency was determined by independent t-test using bilateral distribution. It was regarded that a statistically-significant difference is present at p<0.05. The data obtained in a cell survivability experiment are shown as an average±a standard deviation (n=4).

[2] = Dynamic light scattering (DLS) size and PDI of carrier peptide-pDNA complexes; format: physicochemical; details: complex with pDNA
Procedure: Ionic complexes of carrier peptides (R9-BP100 and (KH)9-BP100) different in N/P ratio and pDNA encoding a reporter gene were prepared and characterized by use of dynamic light scattering (DLS), an atomic force microscope (AFM), a zeta potential meter and agarose gel electrophoresis. The N/P ratio herein refers to the ratio of the number of amine groups from the carrier peptide and the number of phosphate groups from pDNA.
(§1) Two types of pDNA, i.e., green fluorescence protein (GFP)-encoding P35S-GFP (S65T)-TNOS and Renilla luciferase (RLuc)-encoding P35S-RLuc-TNOS, were used as reporter genes. All pDNA molecules were amplified in a competent DH5α E. coli (Takara) and purified by an Endofree Plasmid Giga Kit (Qiagen). To prepare a carrier peptide-pDNA complex, a carrier peptide (0.5 g/L) was mixed with a pDNA solution (about 1.0 mg/mL) so as to have different N/P ratios (0.5, 1, 2, 5, 10 and 20) at 25° C. Immediately after mixing, complexes were characterized by a zeta potential meter (Zetasizer Nano-ZS, Malvern Instruments Ltd) and an atomic force microscope (Seiko Instruments).
(§2) Solutions containing complexes each were diluted with ultra-pure water (MilliQ) up to a final volume of 800 μL and subjected to measurement of zeta potential and size. The zeta potential and zeta shift of the solution samples were measured three times by a zeta potential meter and averages of data were obtained by use of Zetasizer software ver 6.20 (Malvern Instruments Ltd). Dynamic light scattering (DLS) was performed to determine hydrodynamic diameters. Subsequently, polydispersion indexes (PDI) were determined by use of a zeta nanosizer (Zetasizer software ver 6.20) using He—Ne laser (633 nm) at 25° C. and a backscattering detection angle of 173°. Observation by an AFM was performed by fixing a complex solution on cut mica and using a silicon cantilever in air at room temperature in a tapping mode at a spring constant of 1.3 N/m. A cantilever tip rotation effect was obtained by calculation and true dimensions of complexes were obtained by the method previously reported (K. Numata, Y. Kikkawa, T. Tsuge et al., Macromol Biosci 6 (1), 41, 2006; K. Numata, T. Hirota, Y. Kikkawa et al., Biomacromolecules 5 (6), 2186, 2004). For gel retardation assay, each sample (40 μL) containing 1.0 μg of pDNA was mixed with a loading buffer, analyzed on a 1% agarose gel (TAE buffer, 100 V, 30 minutes) and stained with ethidium bromide.

[3] = Zeta potential of carrier peptide-pDNA complexes; format: physicochemical; details: pDNA complex
Procedure: as §1, §2

pDNA = test: Gel retardation assay (agarose gel electrophoresis) of carrier peptide-pDNA complexes; format: physicochemical; details: pDNA complex
Procedure: as §2

Arabidopsis thaliana L. = test: Introduction of giant DNA (80 kbp luciferase plasmid) into Arabidopsis thaliana L.; format: in vivo; details: complex with 80 kbp luciferase plasmid, twelve hours after introduction
Procedure: A plasmid (80 kbp) encoding luciferase was prepared by use of Bacillus subtilis and introduced into Arabidopsis thaliana L. by use of a carrier peptide ((KH)9-BP100). Twelve hours after introduction of the complex, luciferase was extracted from the leaf and subjected to quantitative analysis.

[4] = system: mitochondria of leaf of Arabidopsis thaliana L.; test: Organelle selective gene introduction, Renilla luciferase expression in mitochondria of Arabidopsis thaliana L. leaf; format: in vivo; details: complex with pDONRcox2p: rluc/gfp
Procedure: A carrier peptide comprising a mitochondrial transit sequence (Cytochrome c oxidase subunit IV (yeast)) and a polycationic sequence was synthesized. In other words, ([…]) (SEQ ID NO: 43) was synthesized by the solid phase peptide synthesis. The mitochondrial transit sequence is represented by MLSLRQSIRFFK (SEQ ID NO: 44) and the polycationic sequence is represented by KHKHKHKHKHKHKHKHKH) (SEQ ID NO: 22). Then, a complex was prepared from the carrier peptide synthesized and a plasmid vector (pDONRcox2p: rluc/gfp) that can function in mitochondria. In the same manner as in the above Examples, the complex was introduced into a leaf of Arabidopsis thaliana L. and expression of a reporter gene (Renilla Luciferase) in the mitochondria was quantitatively evaluated. Using a promoter (cox) which specifically functions in mitochondria, whether the complex was specifically introduced into the mitochondria was determined.

[5] = N/P ratio within the range of 2 to 20

Substance	RLuc expression (relative photometric unit/protein weight) [1] [RLU/mg]	PDI ([2]; N/P ratio 0.5)	Size (average hydrodynamic diameter, DLS) ([2]; N/P ratio 0.5) [nm]	PDI ([2]; N/P ratio 1)	Size (average hydrodynamic diameter, DLS) ([2]; N/P ratio 1) [nm]	PDI ([2]; N/P ratio 2)	Size (average hydrodynamic diameter, DLS) ([2]; N/P ratio 2) [nm]	PDI ([2]; N/P ratio 5)	Size (average hydrodynamic diameter, DLS) ([2]; N/P ratio 5) [nm]	PDI ([2]; N/P ratio 10)	Size (average hydrodynamic diameter, DLS) ([2]; N/P ratio 10) [nm]	PDI ([2]; N/P ratio 20)	Size (average hydrodynamic diameter, DLS) ([2]; N/P ratio 20) [nm]	zeta potential ([3]; N/P ratio of 0.5 and 1)	zeta potential [3, 5]	transfection efficiency (RLuc assay) compared to complexes having other N/P ratios ([1]; pDNA complex)	incubation time showing the highest transfection efficiency ([1]; pDNA complex) [h]	other results
KHKHKHKHKHKHKHKHKH [(KH)9, reference compound]	340±60	–	–	–	–	–	–	–	–	–	–	–	–	–	–	–	–	–
KHKHKHKHKHKHKHKHKHKKLFKKILKYL-NH2 [(KH)9-BP100, tested as ionic complex with pDNA]	–	0.31	291	0.30	322	0.23	139	0.23	106	0.23	96	0.24	114	negative values	positive values	highest transfection efficiency	12	mobility of pDNA in agarose gel electrophoresis (pDNA; N/P ratio up to 10): a small amount of pDNA migrated; luciferase activity in leaf (Arabidopsis thaliana L.): efficient luciferase activity was confirmed
KKLFKKILKYL [BP100, cell-penetrating peptide alone, synthesized for controls, reference compound]	120±70	–	–	–	–	–	–	–	–	–	–	–	–	–	–	–	–	–
MLSLRQSIRFFKKHKHKHKHKHKHKHKHKH [SEQ ID NO: 43]	–	–	–	–	–	–	–	–	–	–	–	–	–	–	–	–	–	gene introduction efficiency to mitochondria (Rluc) among N/P=0.5, 1 and 2 [4]: a highly significant difference was shown
RRRRRRRRRKKLFKKILKYL-NH2 [R9-BP100, tested as ionic complex with pDNA]	–	0.34	319	0.38	321	0.21	151	0.21	127	0.23	114	0.25	116	negative values	positive values	highest transfection efficiency	12	mobility of pDNA in agarose gel electrophoresis (pDNA; N/P ratio of 0.5 to 2): the same mobility as that of a free pDNA; mobility of pDNA in agarose gel electrophoresis (pDNA; N/P ratio of 10 and 20): no mobility was observed; time-dependent transfection behavior ([1]; pDNA complex, compared to (KH)9-BP100): quick and short transfection behavior
